# Assay results as given in the supplement of paper PMC7125110.
# ± gives the standard error. Variants at the floor of the assay were thinned out.
# B1: glmS ribozyme (parent)
# chain: AUAAAAGCGCCAGAACUACAGAAAUGUAGUUGACGAGGAGGAGGUUUAUCGAAUUUUCGGCGGAUGCCUCCAAA
# What was measured:
# Conditions in all cases: with glucosamine-6-phosphate
# glucosamine-6-phosphate [1] = variants of: B1; test: self-cleavage kobs at 40 uM GlcN6P; higher = faster cleavage; RNA array
# Outline: (§1)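 In situ transcription by E. coli RNA polymerase produced barcoded ribozyme variants on sequenced MiSeq chips, and a hybridised Cy3 probe tracked them at 37 °C. Glucosamine-6-phosphate was flowed in at 40 μM to 10 mM in HEPES/KCl/Mg(OAc)2 buffer. kcat and KM were taken from weighted Michaelis–Menten fits of kobs values from exponential decay fits.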
# glucosamine-6-phosphate [2] = variants of: B1; test: self-cleavage kobs at 160 uM GlcN6P; higher = faster cleavage; RNA array
# Outline: as §1
# glucosamine-6-phosphate [3] = variants of: B1; test: self-cleavage kobs at 640 uM GlcN6P; higher = faster cleavage; RNA array
# Outline: as §1
# glucosamine-6-phosphate [4] = variants of: B1; test: self-cleavage kobs at 2500 uM GlcN6P; higher = faster cleavage; RNA array
# Outline: as §1
# glucosamine-6-phosphate [5] = variants of: B1; test: self-cleavage kobs at 10000 uM GlcN6P; higher = faster cleavage; RNA array
# Outline: as §1
Variant,self-cleavage kobs at 40 uM GlcN6P (glucosamine-6-phosphate [1]) [s⁻¹],self-cleavage kobs at 160 uM GlcN6P (glucosamine-6-phosphate [2]) [s⁻¹],self-cleavage kobs at 640 uM GlcN6P (glucosamine-6-phosphate [3]) [s⁻¹],self-cleavage kobs at 2500 uM GlcN6P (glucosamine-6-phosphate [4]) [s⁻¹],self-cleavage kobs at 10000 uM GlcN6P (glucosamine-6-phosphate [5]) [s⁻¹]
G35U G40U,< 1e-05,< 1e-05,< 1e-05,< 1e-05,< 1e-05
G37U G41A C68U,< 1e-05,,,,
G37A G38U C50G C67U,8.1e-05 ± 3.5e-05,,,,0.000315 ± 8.1e-05
A39G A48U C58G,< 1e-05,,,,< 1e-05
A36C A48C U56A,< 1e-05,,,,
A36G U54C,< 1e-05,< 1e-05,,,
G38A G51U A52U,< 1e-05,,,,< 1e-05
G37C U56G,< 1e-05,< 1e-05,,,
A39C U55G,0.000197 ± 7e-05,0.000315 ± 8.7e-05,0.00104 ± 0.00022,,
A36U G41U C70G,< 1e-05,,,,
G35C G62A,< 1e-05,< 1e-05,< 1e-05,< 1e-05,< 1e-05
G37U U45G U46C G63A C68A,< 1e-05,,,,< 1e-05
G35C C71U,< 1e-05,,< 1e-05,< 1e-05,< 1e-05
G35C C68A C71U,< 1e-05,,< 1e-05,< 1e-05,< 1e-05
A36U C70G,3.74e-05 ± 8.5e-06,2.91e-05 ± 1.4e-05,0.000403 ± 6.8e-05,,
A36G A52U,< 1e-05,< 1e-05,< 1e-05,< 1e-05,< 1e-05
A36G A52G,< 1e-05,< 1e-05,< 1e-05,,< 1e-05
G35C C58A C71A,< 1e-05,,,,< 1e-05
A36U G44A,< 1e-05,< 1e-05,< 1e-05,< 1e-05,< 1e-05
G37U G43U,< 1e-05,,< 1e-05,,< 1e-05
G37U G43C,< 1e-05,< 1e-05,,< 1e-05,< 1e-05
A36C A39G G66A,< 1e-05,,,,< 1e-05
